Laboratory results reported in patent US20260125455A1 (CLEVELAND CLINIC FOUNDATION, published 2026).

Columns and labels:
[1] = target: T1, human complement protein C6 (human, UniProt P13671 22-934); test: SPR (Biacore 8K)
T1 construct: also called human C6; C6 antigen
Description: (§1) The kinetics of C6 binding was compared for the purified chimeric and lead humanized C601 using surface plasmon resonance (SPR, Biacore 8K). IgG were captured on a protein G sensor chip and binding of C6 measured using a three-fold concentration series of C6 from 0.03 nM-25 nM (FIG. 5). In a second experiment, a two-fold concentration series from 0.31 nM-20 nM C6 was used (FIG. 6). For all antibodies, binding of C6 occurred in a concentration-dependent manner and data could be fitted using a 1:1 model to calculate the association rate (kₒₙ), dissociation rates (kd) and affinity constant (KD). The kinetic data are shown in Table 5, which indicates only small differences between the parameters determined from the two independent experiments.
(§2) Binding ELISAs used Nunc Maxisorp 384-well plates, wells coated with C6, C5b,6 complex or C5 (Complement Technology Inc, TX) and goat anti-human IgG (Fab specific) peroxidase secondary antibodies (Sigma-Aldrich, A0293) for detection. For the thermal stability assay, IgG supernatants were diluted to their EC₈₀ concentration, incubated at different temperatures for 10 min and C6 binding measured by ELISA with the binding signal plotted against temperature. Kinetics of C6 binding were measured by capturing antibodies from supernatant samples using Protein G biosensors and performing a 20 min association step with 2.5 nM C6 and a 20 min dissociation step using the Octet RED96. Precise kinetic measurements were obtained by surface plasmon resonance (Biacore 8K, Cytiva). The IgG were captured on a protein G sensor chip. Binding of C6 measured using a three-fold concentration series of C6 from 0.03 nM-25 nM and data were fitted using a 1:1 model in two independent experiments.

[2] = target: T1, human complement protein C6; test: SPR (Biacore 8K); remark: listed apart in the source
Description: as §1
Binding ELISAs used Nunc Maxisorp 384-well plates, wells coated with C6, C5b,6 complex or C5 (Complement Technology Inc, TX) and goat anti-human IgG (Fab specific) peroxidase secondary antibodies (Sigma-Aldrich, A0293) for detection. For the thermal stability assay, IgG supernatants were diluted to their EC₈₀ concentration, incubated at different temperatures for 10 min and C6 binding measured by ELISA with the binding signal plotted against temperature. […] Binding of C6 measured using a three-fold concentration series of C6 from 0.03 nM-25 nM and data were fitted using a 1:1 model in two independent experiments.

[3] = target: T1, human complement protein C6; test: ELISA, C6-coated wells
[4] = target: T1, human complement protein C6; test: BLI (Octet), full kinetics, C6 0.16-10 nM, 1:1 fit
Description: For two of the best performing antibodies, C601HFKC4 HuG4K (aka 3713) and C601HFKI HuG4K, a full kinetic experiment was run using seven concentrations of C6 (0.16-10 nM) and association and dissociation steps of 20 min. The datasets were processed by subtracting the no antigen controls and the data were fitted to a 1:1 binding model. Binding curves giving Req/Rₘₐₓ ratios>90% or showing poor fitting were excluded from analysis.

[5] = target: T1, human complement protein C6; test: C6-binding ELISA, A650 nm; sample 'PBS, non-incubated' (kept at 4 C)
Description: The C6-binding ELISA was then used to compare the binding abilities of the C601 antibodies that had been incubated in the 3 different sera to antibody samples that were incubated in PBS at 37 C or kept at 4 C (non-incubated).
as §2, with “Precise kinetic measurements were obtained by surface plasmon resonance (Biacore 8K, Cytiva). The IgG were captured on a protein G sensor chip.” left out
(§3) The Uncle instrument (Unchained Labs) was used to monitor unfolding via intrinsic fluorescence and aggregation by static light scattering across a temperature gradient to obtain melting temperatures (Tₘ). […] Isoelectric points were determined by capillary isoelectric focusing using a PA800+ (Beckman Coulter).

[6] = target: T1, human complement protein C6; test: SPR (Biacore 8K), IgG on protein G chip, C6 0.03-25 nM 3-fold series, 1:1 fit
Description: as §1, §2

[7] = target: T1, human complement protein C6; test: SPR (Biacore 8K), IgG on protein G chip, C6 0.31-20 nM 2-fold series, 1:1 fit
Description: as §1

[8] = target: T1, human complement protein C6; test: C6-binding ELISA, A650 nm; sample 'PBS' (28 days at 37 C)
Description: For the serum stability assessment, samples of the purified candidate antibodies are normally incubated in mouse, human and cynomolgus serum at 37 C for 28 days and then tested in an antigen-binding ELISA. Since the anti-C6 antibodies are expected to bind to both human and cynomolgus C6 but not mouse C6, we anticipated that incubating in human or cynomolgus sera would reduce ELISA binding due to occupation of the antibody binding sites by C6 protein from the sera. Therefore, the chimeric and humanized antibodies were tested with human and mouse sera and with human sera from which the C6 protein has been depleted. The C6-binding ELISA was then used to compare the binding abilities of the C601 antibodies that had been incubated in the 3 different sera to antibody samples that were incubated in PBS at 37 C or kept at 4 C (non-incubated).
as §3, with “Coulter). […]” for “Coulter).”

T1 sequence (P13671 22-934 limits assumed): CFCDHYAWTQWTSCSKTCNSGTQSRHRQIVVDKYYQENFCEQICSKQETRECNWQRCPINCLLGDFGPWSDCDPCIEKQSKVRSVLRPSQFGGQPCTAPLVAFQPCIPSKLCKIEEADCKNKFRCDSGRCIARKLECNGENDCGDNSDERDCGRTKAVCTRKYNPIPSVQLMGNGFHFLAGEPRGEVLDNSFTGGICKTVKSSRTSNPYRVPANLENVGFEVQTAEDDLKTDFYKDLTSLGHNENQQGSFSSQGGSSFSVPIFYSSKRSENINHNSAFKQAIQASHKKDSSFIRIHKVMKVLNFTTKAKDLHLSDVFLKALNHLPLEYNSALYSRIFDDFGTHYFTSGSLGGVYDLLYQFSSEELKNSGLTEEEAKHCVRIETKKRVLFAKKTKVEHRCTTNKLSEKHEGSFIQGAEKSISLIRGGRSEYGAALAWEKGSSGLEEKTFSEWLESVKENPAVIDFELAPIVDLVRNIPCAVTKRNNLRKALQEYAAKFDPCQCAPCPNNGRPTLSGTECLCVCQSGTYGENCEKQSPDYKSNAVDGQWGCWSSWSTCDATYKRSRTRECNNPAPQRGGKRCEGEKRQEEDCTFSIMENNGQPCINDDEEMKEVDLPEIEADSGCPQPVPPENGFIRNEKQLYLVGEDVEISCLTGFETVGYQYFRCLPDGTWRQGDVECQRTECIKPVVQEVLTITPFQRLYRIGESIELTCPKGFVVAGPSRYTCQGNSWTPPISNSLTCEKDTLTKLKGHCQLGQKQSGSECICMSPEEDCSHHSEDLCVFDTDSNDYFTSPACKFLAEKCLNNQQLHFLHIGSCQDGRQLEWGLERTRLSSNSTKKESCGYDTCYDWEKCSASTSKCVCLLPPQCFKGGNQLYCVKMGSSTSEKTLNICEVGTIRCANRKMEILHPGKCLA

| Kd [1] | Kd [2] | EC50 [3] | Kd [4] | koff [4] | kon [4] | EC50 [5] | Kd [6] | koff [6] | kon [6] | Kd [7] | koff [7] | kon [7] | EC50 [8] | Binder |
| --- | --- | --- | --- | --- | --- | --- | --- | --- | --- | --- | --- | --- | --- | --- |
| 0.343 nM | 0.343 nM | 0.19 nM | 0.11 nM | 0.00013 s⁻¹ | 1.19e+06 M⁻¹ s⁻¹ | 0.17 nM | 0.343 nM | 0.000389 s⁻¹ | 1.13e+06 M⁻¹ s⁻¹ | 0.226 nM | 0.000306 s⁻¹ | 1.36e+06 M⁻¹ s⁻¹ |  | C601HFKC4 HuG4K (antibody, human IgG4 S228P, kappa, also called 3713; clone 3713) heavy: not shown light: QIVLTQSPATLSLSPGERATLSCRASSSVSYLHWYQQKPGQSPRLWIYDTSKRATGIPARFSGSGSGTDYTLTISSLEPEDFAVYYCQQWTSNPLTFGQGTKLEIKRTVAAPSVFIFPPSDEQLKSGTASVVCLLNNFYPREAKVQWKVDNALQSGNSQESVTEQDSKDSTYSLSSTLTLSKADYEKHKVYACEVTHQGLSSPVTKSFNRGEC |
| 0.527 nM | 0.527 nM | 0.2 nM |  |  |  |  | 0.527 nM | 0.000448 s⁻¹ | 850000 M⁻¹ s⁻¹ | 0.459 nM | 0.000413 s⁻¹ | 900000 M⁻¹ s⁻¹ | 0.19 nM | MoC601 HuG4K (chimeric C601 antibody) (antibody, human IgG4 S228P, kappa, V domains shown, also called chimeric antibody; chimeric 1C9) VH: QVQLQQSGAELVKPGASVKISCKASGYAFSDYWMNWVKQRPGKGLEWIGQIYPGDDDTNYNGKFKGKATLTADKSSSTAYMQLSSLTSEDSAVYFCAREGYYGYTYVEYFDVWGTGTTVTVSS VL: QIVLTQSPAIMSVSPGEKVTLTCSASSSVSYMHWYQQKSGTSPKRWIYDTSKLASGVPARFSGSGSGTSYSLTISSMEAEDAATYYCQQWTSNPLTFGAGTKLELRR |
